B1: 25 (nucleic acid)
chain: ACACTCACAGGCGCTGGCGACGTCGGAACCGTGTACCATGGTCACGTCGTGCATGGCCGCTAGT
modifications: aptamer; DNA, backbone and methylation of C not given here
B2: 21 (nucleic acid)
chain: ACACTCACAGGCGCTGGCCACCACTGCACCGGAACCGCGAATGTGGTCGTGCATGGCCGCTAGT
modifications: aptamer; DNA, backbone and methylation of C not given here
B3: 23 (nucleic acid)
chain: ACACTCACAGGCGCTGGCACGGACCGGAACCGGGACGCTCGGTCGACCGTGCATGGCCGCTAGT
modifications: aptamer; DNA, backbone and methylation of C not given here
B4: 24 (nucleic acid)
chain: ACACTCACAGGCGCTGGCGAGTCGGAACCGAGCCGATTGGTCACTCGCGTGCATGGCCGCTAGT
modifications: aptamer; DNA, backbone and methylation of C not given here
B5: 20 (nucleic acid)
chain: ACACTCACAGGCGCTGGGGTACGCTCGGAACCGAGGCAATTGGTCAGCGTGCATGGCCGCTAGT
modifications: aptamer; DNA, backbone and methylation of C not given here
B6: 22 (nucleic acid)
chain: ACACTCACAGGCGCTGGCCGGAACCGTGCATATGGTCGCCAGCACATCGTGCATGGCCGCTAGT
modifications: aptamer; DNA, backbone and methylation of C not given here
B7: 5 (nucleic acid)
chain: GTGGTCTAGCTGTACTCATGGACGGAACCAGAATACTTTTGGTCTCCATTGAGTACGCCACAGTCAACGAGCTA
modifications: aptamer; DNA, backbone and methylation of C not given here
B8: 9 (nucleic acid)
chain: GTGGTCTAGCTGTACTCAGGCCGGAACCGGTGAAATTGGTCGCCTAATAAGCGAAATCCACAGTCAACGAGCTA
modifications: aptamer; DNA, backbone and methylation of C not given here
B9: 8 (nucleic acid)
chain: GTGGTCTAGCTGTACTCCGAAAGCCGGAACCGTGCCAATGGTCGCTACTTCAGCTCCCCACAGTCAACGAGCTA
modifications: aptamer; DNA, backbone and methylation of C not given here
B10: 10 (nucleic acid)
chain: GTGGTCTAGCTGTACTCGCCGGAACCGTACTATGGTCGCGTTGTATGACGCTTGTATCCACAGTCAACGAGCTA
modifications: aptamer; DNA, backbone and methylation of C not given here
B11: 6 (nucleic acid)
chain: GTGGTCTAGCTGTACTCGGAACCGTACTCAACGGTCAGTACCTTTGCGCCGCAGCAAGCCACAGTCAACGAGCTA
modifications: DNA, backbone and methylation of C not given here
B12: 4 (nucleic acid)
chain: GTGGTCTAGCTGTACTCTCCGGAACCAGAGCAATTTGGTCGAGCGCTATCGGATGGTCCACAGTCAACGAGCTA
modifications: aptamer; DNA, backbone and methylation of C not given here

molecular target: T1, autotaxin (Homo sapiens, UniProt Q13822); test: Biacore surface plasmon resonance, autotaxin immobilized on CM4 chip, nucleic acid as analyte; assay type: binding; conditions: maximum RU relative to SEQ ID NO: 22
T1 construct: His; purchased R&D

Molecule	Binding activity by Biacore
B1	+ (not less than that)
B2	+ (not less than that)
B3	+ (not less than that)
B4	+ (not less than that)
B5	+ (not less than that)
B6	+ (not less than that)

molecular target: T1, autotaxin; test: Biacore surface plasmon resonance, nucleic acid immobilized on SA chip, autotaxin as analyte; assay type: binding; conditions: nucleic acid immobilized about 1500 RU, autotaxin 0.02 μM as analyte; maximum RU relative to SEQ ID NO: 10
Protocol: Biacore T100 manufactured by GE Healthcare is used for the measurement of binding strength. In one measurement method, an aptamer is first immobilized on a sensorchip. The immobilization amount is set to about 1500 RU. An autotaxin solution as an analyte prepared to 0.020 μM is injected by 20 μL, and binding of the autotaxin to the aptamer is detected.
All nucleic acids shown in SEQ ID NOs: 4-10 were produced by chemical synthesis. The binding activity of these nucleic acids to autotaxin was evaluated by the surface plasmon resonance method. For the measurement, Biacore T100 manufactured by GE Healthcare was used. The SA chips with streptavidin immobilized thereon were used as the sensor chips. Binding thereto was about 1500 RU of 16 nucleotide Poly dT of which biotin was bound to the 5′-terminus. The nucleic acids used as a ligand were added with Poly A (16 nucleotides) to the 3′-terminus, and were immobilized on SA chips by T-A annealing. The nucleic acids (20 μL) were injected at a flow rate of 20 μL/min to immobilize about 1500 RU of the nucleic acids. An autotaxin for analyte was prepared at 0.02 μM, and 20 μL thereof was injected. As a running buffer, solution A (mixed solution of 145 mM sodium chloride, 5.4 mM potassium chloride, 1.8 mM calcium chloride, 0.8 mM magnesium chloride, 20 mM Tris (pH 7.6), 0.05% Tween20) was used.

Molecule	Binding activity by Biacore
B7	+ (not less than that)
B8	+ (not less than that)
B9	+ (not less than that)
B10	+ (not less than that)
B11	+ (not less than that)
B12	+ (not less than that)

molecular target: T1, autotaxin; test: NPP2 inhibitory assay (pNP-TMP substrate); assay type: biochemical; conditions: Table 1; autotaxin 0.3 nM, pNP-TMP 1 mM, 37° C. 24 hr; mean of 2-3 measurements ± standard deviation; >1.0 = no inhibitory activity up to 1.0 μM
From the text: Whether an aptamer inhibits the enzyme activity of autotaxin can be evaluated, for example, by the following test. As a substrate of autotaxin, phosphodiester bond-containing synthetic substrate p-nitrophenyl thymidine 5′-monophosphate (pNP-TMP) (SIGMA) is used. A phosphodiester bond is cleaved by hydrolysis, and p-nitrophenol is liberated. The p-nitrophenol develops a yellow color, and the color is detected. For the assay, a 96-well plate (96-Well EIAsurasshuRIA Polystyrene Plates, Costar) was used, and the amount of the reaction mixture was 200 μL. Nucleic acid was prepared in solution A (see below-mentioned Example 1) (100 μL), pNP-TMP (20 μL) adjusted to 10 mM in the reaction mixture A was added, and the mixture was stirred well and heated at 37° C. for 5 min. On the other hand, 6 ng of autotaxin (Recombinant Human, manufactured by R&D) diluted with solution A was prepared (80 μL), and heated at 37° C. for 5 min. After heating, they were mixed to start an enzyme reaction. The final autotaxin concentration in the reaction solution was 0.3 nM, and the final substrate concentration was 1 mM. A plate containing the reaction mixture was heated at 37° C. for 24 hr, placed in a microplate reader SpectraMax190 (manufactured by Molecular Devices) and the absorbance was determined at wavelength 405 nm. The absorbance when nucleic acid is not added as 100% (A0), an enzyme activity rate was determined from the absorbance (A) of each test substance and according to the following formula.
Enzyme activity rate=(A/A0)×100
(§1) The concentration (IC50) of an inhibitor necessary for inhibiting the enzyme activity by 50% was determined.
Whether these nucleic acids show an autotaxin inhibitory activity was evaluated by the following method. As a substrate of autotaxin, phosphodiester bond-containing synthetic substrate p-nitrophenyl thymidine 5′-monophosphate (pNP-TMP) (SIGMA) was selected (hereinafter to be referred to as NPP2 inhibitory assay). A phosphodiester bond is cleaved by hydrolysis, and p-nitrophenol is liberated. The p-nitrophenol develops a yellow color, and the color is detected. For the assay, a 96-well plate (96-Well EIA/RIA Polystyrene Plates, Costar) was used, and the amount of the reaction mixture was 200 μL. As the reaction mixture, solution A was used. Nucleic acids were prepared in solution A (100 μL), pNP-TMP (20 μL) adjusted to 10 mM in the reaction mixture A was added, and the mixture was stirred well and heated at 37° C. for 5 min. On the other hand, 6 ng of autotaxin diluted with solution A was prepared (80 μL), and heated at 37° C. for 5 min. After heating, they were mixed to start enzyme reaction. The final autotaxin concentration in the reaction solution was 0.3 nM, and the final substrate concentration was 1 mM. A plate containing the reaction mixture was heated at 37° C. for 24 hr, placed in a microplate reader SpectraMax190 (manufactured by Molecular Devices) and the absorbance was determined at wavelength 405 nm. The absorbance when nucleic acids are not added as 100% (A0), an […] was determined from the absorbance (A) of each test substance and according to the following formula.
as §1

Molecule	IC50 [nM]
B7	11 ± 5
B8	36 ± 4
B9	10 ± 2
B10	21 ± 6
B11	20
B12	16 ± 6

same assay, conditions: Table 3; mean of 2-3 measurements ± standard deviation; >1.0 = no inhibitory activity up to 1.0 μM

Molecule	IC50 [nM]
B1	31 ± 5.7
B2	28 ± 11
B3	75
B4	32 ± 4.2
B5	37 ± 2
B6	30 ± 11

From patent publication US20170137818A1, “APTAMER INHIBITING BIOLOGICAL ACTIVITY OF AUTOTAXIN BY BINDING WITH AUTOTAXIN, AND USE THEREOF” (RIBOMIC INC., priority 2014, published 2017)
